According to patent US20250122285A1 (ANWITA BIOSCIENCES, published 2025):

Molecular target: T1, CD122/CD132 heterodimer (human, UniProt P14784 27-239; P31785 23-262)
T1 construct: Bought from ACROBIO as 'AVT-TAG CD122/CD132 heterodimer'; also called AVT-TAG CD122/CD132 heterodimer; IL-2Rβ/γ complex
T1 sequence 1: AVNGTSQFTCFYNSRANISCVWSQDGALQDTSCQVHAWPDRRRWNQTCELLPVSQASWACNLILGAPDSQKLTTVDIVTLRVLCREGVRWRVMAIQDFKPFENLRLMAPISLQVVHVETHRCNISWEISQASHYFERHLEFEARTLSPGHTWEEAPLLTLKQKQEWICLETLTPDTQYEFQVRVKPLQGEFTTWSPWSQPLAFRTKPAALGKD
T1 sequence 2: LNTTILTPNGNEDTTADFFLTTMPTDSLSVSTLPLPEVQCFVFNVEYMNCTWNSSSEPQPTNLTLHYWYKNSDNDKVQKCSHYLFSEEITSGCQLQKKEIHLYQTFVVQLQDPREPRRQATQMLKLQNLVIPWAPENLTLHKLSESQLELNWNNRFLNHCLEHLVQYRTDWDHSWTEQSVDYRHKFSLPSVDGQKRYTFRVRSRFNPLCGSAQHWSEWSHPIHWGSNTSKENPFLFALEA
Assay: BLI (OCTET RED96), receptor on biosensor, IL-2 in solution at 10-2,000 nM, 24 C
Protocol: OCTET® RED96 was used to characterize the interactions of wild-type hL-2 and hhL-2 muteins with CD25, CD122, or CD122/CD132 heterodimer. AVT-TAG CD122/CD132 heterodimer was purchased from ACROBIO. The protein samples were diluted in the OCTET® kinetic buffer. […] The biosensor was then dipped into a solution containing a wild-type hL-2 and IL-2 muteins at 10 to 2,000 nM at 24° C. The association and dissociation sensorgraph was fitted by global or local fitting using the OCTET® Data Analysis HT software.

Kd: 242 nM
B1: IL-2-IL-15 Chimera 65 (T3A, I92A, C125S, Q126E) (ligand)
chain: APASSSTKKTQLQLEHLLLDLQMILNGIQSMEIDATTFKFYMPKKATELKHLQCLEEELKPLEEVLNLAQSKNFHLRPRDLISNINVAVLELKGSETTFMCEYADETATIVEFLNRWITFSESIISTLT
